The record followed here is PMC6941993 (2020).

The assay addresses stand-alone apical domain (sAD) designed from White-throated woodrat TfR1 (Neotoma albigula (White-throated …, N-linked glycan at Asn251 seen in the crystal)); two putative N-glycosylation sites (Asn204, Asn251), both partially glycosylated). The experiment in a line: SPR.

B1: GP1_(SBAV)–Fc (Fc fusion)
chain: DHPTSCMVNHSTYYVHENKNATWCLEVSVTDVTLLMAEHDRQVLNNLSNCVHPAVEHRSRMVGLLEWIFRALKYDFNHDPTPLCQKQTSTVNETRVQINITEGFGSHGFEDTILQRLGVLFGSRIAFSNIQDLGKKRFLLIRNSTWKNQCEM
Molecule B1 came in with a Kd of 63 nM.

B2: GP1_(GTOV)–Fc (Fc fusion)
chain: ELPSLCRVNNSYSLIRLSHNSNQALSVEYVDVHPVLCSSSPTILDNYTQCIKGSPEFDWILGWTIKGLGHDFLRDPRICCEPKKTTNAEFTFQLNLTDSPETHHYRSKIEVGIRHLFGNYITNDSYSKMSVVMRNTTWEGQCSN
The molecule B2 had a dissociation constant Kd of 360 nM.
